Test results: US20070218463A1 (CANAG DIAGNOSTICS, published 2007)

Molecular target: T1, Cathepsin L (Calbiochem) (UniProt P07711 114-333, limits assumed)
T1 construct: Bought enzyme
Assay: complex binding, 2 ug SCCA protein mixed with cathepsin, 37 C 30 min, SDS-PAGE
Procedure: Complex binding of SCCA to substrates was performed by mixing 2 μg of SCCA-protein with 0.5 μg of Cathepsin G (Biodesign Int.) or 0.5 μg of […] Cathepsin L (Calbiochem) in 1×PBS buffer in a total volume of 4.5 μl. Samples were incubated at 37° C. for 30 minutes. To each sample, 0.5 μl of 10× Complex-buffer (20% SDS, 140 mM Mercaptoethanol, bromophenolblue) was added. Samples were incubated for 3 minutes at 95° C. and analyzed on a 12.5% SDS-PAGE-gel. The SCCA1/A2 fusion protein forms a complex with Cathepsin G but not with Cathepsin L showing that the fusion protein is functional and has the substrate specificity of SCCA2 (FIG. 8).

T1 sequence (P07711 114-333 limits assumed): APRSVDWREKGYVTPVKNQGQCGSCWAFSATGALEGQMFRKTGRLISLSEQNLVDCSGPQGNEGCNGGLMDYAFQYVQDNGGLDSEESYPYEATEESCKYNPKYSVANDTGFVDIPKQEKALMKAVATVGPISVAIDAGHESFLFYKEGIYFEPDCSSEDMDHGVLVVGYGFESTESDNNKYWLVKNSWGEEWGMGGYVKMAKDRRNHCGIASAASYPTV

- binding result: no binding
B1: SCCA1/SCCA2 fusion protein (other)
chain: MNSLSEANTKFMFDLFQQFRKSKENNIFYSPISITSALGMVLLGAKDNTAQQIKKVLHFDQVTENTTGKAATYHVDRSGNVHHQFQKLLTEFNKSTDAYELKIANKLFGEKTYLFLQEYLDAIKKFYQTSVESVDFANAPEESRKKINSWVESQTNEKIKNLIPEGNIGSNTTLVLVNAIYFKGQWEKKFNKEDTKEEKFWPNKNTYKSIQMMRQYTSFHFASLEDVQAKVLEIPYKGKDLSMIVLLPNEIDGLQKLEEKLTAEKLMEWTSLQNMRETCVDLHLPRFKMEESYDLKDTLRTMGMVNIFNGDADLSGMTWSHGLSVSKVLHKAFVEVTEEGVEAAAATAVVVVELSSPSTNEEFCCNHPFLFFIRQNKTNSILFYGRFSSP
notes: Recombinant serpin fusion (exons 2-7 of SCCA1 fused to exon 8 of SCCA2); also called SCCA1/A2; SCCA1/A2 fusion protein
